Test results taken from article PMC6426777 (Frontiers in Immunology, 2019).

Target: T1, recombinant wild-type C1q (human, UniProt P02745 23-245; P02746 28-253; P02747 29-245)
T1 construct: C1q A chain, human; C1q B chain, human; C1q C chain, human; Hexamer of A-B-C heterotrimers (18 chains); also called C1qWT; WT; source: purified from culture supernatant (IgG-ovalbumin aggregates, anti-FLAG M2 column); copies: 6 + 6 + 6
Assay: SPR; Biacore 3000, 25°C; C1q variants immobilised on CM5 chips by amine coupling; partners injected at 20 μl/min in 50 mM Tris-HCl, 150 mM NaCl, 2 mM CaCl2, 0.005% surfactant P20, pH 7.4; BSA reference surface; global fit to 1:1 Langmuir model; apparent KD = kd/ka
Settings: both partners purified

T1 sequence (P02745 23-245, chain 1 of 3): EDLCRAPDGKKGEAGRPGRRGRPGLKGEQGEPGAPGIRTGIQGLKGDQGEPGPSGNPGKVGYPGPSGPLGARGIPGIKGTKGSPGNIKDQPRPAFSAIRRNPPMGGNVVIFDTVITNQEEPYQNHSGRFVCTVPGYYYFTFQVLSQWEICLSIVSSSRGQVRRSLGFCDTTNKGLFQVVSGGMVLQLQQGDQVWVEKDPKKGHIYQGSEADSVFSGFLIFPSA
T1 sequence (P02746 28-253, chain 2 of 3): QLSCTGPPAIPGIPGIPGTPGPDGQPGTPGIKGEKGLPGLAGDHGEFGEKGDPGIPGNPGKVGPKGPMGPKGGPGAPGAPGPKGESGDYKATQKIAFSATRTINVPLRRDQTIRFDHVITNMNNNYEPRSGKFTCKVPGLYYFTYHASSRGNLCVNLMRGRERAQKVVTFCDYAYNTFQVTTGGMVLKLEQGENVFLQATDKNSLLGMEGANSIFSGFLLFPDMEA
T1 sequence (P02747 29-245, chain 3 of 3): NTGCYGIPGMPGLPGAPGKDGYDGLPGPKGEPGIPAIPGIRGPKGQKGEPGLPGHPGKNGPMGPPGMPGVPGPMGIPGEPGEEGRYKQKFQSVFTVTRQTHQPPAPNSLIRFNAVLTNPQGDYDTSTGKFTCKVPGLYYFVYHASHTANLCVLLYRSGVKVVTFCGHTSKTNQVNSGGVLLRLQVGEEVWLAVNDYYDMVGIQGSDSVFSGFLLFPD

B1: recombinant human MASP-2 dimer (enzyme, UniProt O00187 16-686, looked up)
chain: TPLGPKWPEPVFGRLASPGFPGEYANDQERRWTLTAPPGYRLRLYFTHFDLELSHLCEYDFVKLSSGAKVLATLCGQESTDTERAPGKDTFYSLGSSLDITFRSDYSNEKPFTGFEAFYAAEDIDECQVAPGEAPTCDHHCHNHLGGFYCSCRAGYVLHRNKRTCSALCSGQVFTQRSGELSSPEYPRPYPKLSSCTYSISLEEGFSVILDFVESFDVETHPETLCPYDFLKIQTDREEHGPFCGKTLPHRIETKSNTVTITFVTDESGDHTGWKIHYTSTAQPCPYPMAPPNGHVSPVQAKYILKDSFSIFCETGYELLQGHLPLKSFTAVCQKDGSWDRPMPACSIVDCGPPDDLPSGRVEYITGPGVTTYKAVIQYSCEETFYTMKVNDGKYVCEADGFWTSSKGEKSLPVCEPVCGLSARTTGGRIYGGQKAKPGDFPWQVLILGGTTAAGALLYDNWVLTAAHAVYEQKHDASALDIRMGTLKRLSPHYTQAWSEAVFIHEGYTHDAGFDNDIALIKLNNKVVINSNITPICLPRKEAESFMRTDDIGTASGWGLTQRGFLARNLMYVDIPIVDHQKCTAAYEKPPYPRGSVTANMLCAGLESGGKDSCRGDSGGALVFLDSETERWFVGGIVSWGSMNCGEAGQYGVYTKVINYIPWIENIISDF
Kd: 5.04 nM | koff: 0.00234 s⁻¹ | kon: 463000 M⁻¹ s⁻¹
